This is an account of results in US7282356B2, “D-aminoacylase mutants” (Daicel Chemical Industries, Ltd., priority 2002, dated 2007).

The nature of data set [1]: Activity of the cloned, purified enzyme to N-acetyl-L-tryptophan. It counts as biochemical. Particulars: cloned enzyme purified from E. coli. The source says: The present inventors focused on the fact that the D-aminoacylase derived from Alcaligenes denitrificans subsp. xylosoxydans MI-4 strain has an exceedingly high specific activity (404 U/mg) to N-acetyl-D-methionine. According to references, the D-aminoacylase had only 20 U/mg or lower activity to N-acetyl-D-tryptophan. The present inventors cloned the gene encoding the enzyme into E. coli, purified the cloned enzyme, and measured its specific activity. […] Thus, this enzyme can be useful to produce D-tryptophan from N-acetyl-DL-tryptophan.

Data set [2] in a line: Production of D-tryptophan from high concentrations of N-acetyl-DL-tryptophan using culture medium of recombinant E. coli. It counts as cell-based, E. coli HB101. Here is the method:
Cells of E. coli HB101 strain were transformed with the plasmid pSL-AD10 expressing the mutant D-aminoacylase 3AD-0089 (containing the amino acid substitution of A154V/M347A/R374F) obtained in Example 18. The transformant was inoculated to a liquid LB medium, and cultured at 30° C. overnight. Then, the E. coli was inoculated to a culture medium (2x YT) and incubated at 30° C. for 18 hours. N-acetyl-D-tryptophan was hydrolyzed using the culture medium solution of the E. coli.
400 mL of a reaction solution containing the culture medium solution of the E. coli and 15% N-acetyl-DL-tryptophan was incubated at 30° C. for 24 hours while being stirred. E. coli HB101 strain containing the wild type […] was used as a control. While with the wild type the yield was about 4%, with the recombinant E. coli containing pSL-AD10 the yield was 90% or higher (FIG. 1).
The hydrolysis was carried out in the presence of 20% N-acetyl-DL-tryptophan by the same method as described in Example 26. The yield was 90% or higher with the recombinant E. coli having the plasmid pSL-AD10 that contains the DNA encoding the mutant D-aminoacylase 3AD-0089 (containing the amino acid substitution of A154V/M347A/R374F). The optical purity of tryptophan produced was analyzed by the procedure described below. […] The elution was detected with the optical density at 280 nm. […]

Data set [3] can be described thus: Third generation mutants: activity of producing D-tryptophan (TNBS method). It counts as cell-based, E. coli JM109. Particulars: 2% N-acetyl-DL-tryptophan, 3.5% N-acetyl-L-tryptophan, 25° C., 30 minutes. The source says: The amino acid substitution in each mutant, and the effect of the amino acid substitution, which was estimated as an activity of producing D-tryptophan in the presence of 5% N-acetyl-DL-tryptophan and 2% N-acetyl-L-tryptophan, are shown in Table 2. The “activity”, as used herein, refers to “a colorimetric value of the reaction solution determined at the end of reaction by the TNBS method (Abs. 420)/the degree of bacterial growth (OD600)”.
Cells of the E. coli transformant obtained in Example 9 were inoculated on an LB agar plate. Each colony grown on the plate was inoculated with a toothpick to a well of a microtiter plate which contained 150 μl of LB culture medium containing 50 μg/ml ampicillin and 0.02 mM IPTG, and then the microtiter plate was covered with Breathable Sealing Membrane (Nalgene). The microtiter plate was incubated at 37° C. for 18 hours while being shaken. 10 μl of the culture medium solution was added to the reaction solution containing 300 mM Tris-hydrochloride buffer (pH 8.0), 0.1% cetylpyridinium bromide, 2% N-acetyl-DL-tryptophan, 3.5% N-acetyl-L-tryptophan, and distilled water in the wells of a microtiter plate. The plate was incubated at 25° C. for 30 minutes while being shaken. Then, D-tryptophan produced from N-acetyl-D-tryptophan was quantified by colorimetry according to the TNBS method using D-tryptophan as standard. […]

For data set [4] the following is noted: according to references; cited from earlier work.
A short description of data set [5]: Hydrolysis of 15% N-acetyl-DL-tryptophan by E. coli cells. It counts as cell-based, E. coli HB101. Particulars: 25° C., 24 hours. How it is done: 3AD-0013(M347Q/R374H) and 3AD-0089(A154V/M347A/R374P) are mutants with two amino acid substitutions and with three amino acid substitutions of the third generation mutants obtained in Example 17, respectively. Cells of E. coli HB101 strain transformed with plasmids expressing the two types of mutants were each inoculated to a liquid LB medium, and cultured at 30° C. overnight. Then, the E. coli cells were inoculated to a culture medium (2x YT) and incubated at 30° C. for 18 hours. The cells of E. coli were harvested, and used to hydrolyze N-acetyl-D-tryptophan.
10 ml of a reaction solution containing E. coli cells prepared from 5 mL of culture medium solution, 300 mM Tris-hydrochloride buffer (pH 8.0), and 15% N-acetyl-DL-tryptophan was incubated at 25° C. for 24 hours while being stirred. E. coli HB101 strain containing the wild-type pSL-ADD6 was used as a control. While the yield was about 15% with the wild type, the yields were about 30% and about 80% with the mutant 3AD-0013 having two amino acid substitutions and the mutant 3AD-0089 having three amino acid substitutions, respectively. Thus, the third generation mutants obtained in […] were confirmed to have higher processability in the hydrolysis of higher concentrations of N-acetyl-DL-tryptophan.

B1: wild-type: D-aminoacylase derived from Alcaligenes denitrificans subsp. xylosoxydans MI-4, SEQ ID NO: 1 (protein)
chain: MSQSDSQPFDLLLAGGTLIDGSNTPGRRADLGVRGDRIAAIGDLSDAAAHTRVDVSGLVVAPGFIDSHTHDDNYLLRRRDMTPKISQGVTTVVTGNCGISLAPLAHANPPAPLDLLDEGGSYRFERFADYLDALRATPAAVNAACMVGHSTLRAAVMPDLQRAATDEEIAAMRDLAEEAMASGAIGISTGAFYPPAARATTEEIIEVCRPLSAHGGIYATHMRDEGEHIVAALEETFRIGRELDVPVVISHHKVMGQPNFGRSRETLPLIEAAMARQDVSLDAYPYVAGSTMLKQDRVLLAGRTIITWCKPFPELSGRDLDEVAAERGKSKYDVVPELQPAGAIYFMMDEPDVQRILAFGPTMIGSDGLPHDERPHPRLWGTFPRVLGHYARDLGLFPLETAVWKMTGLTAARFGLAGRGQLQAGYFADLVVFDPATVADTATFEHPTERAAGIHSVYVNGAPVWQEQAFTGQHAGRVLARTAA
modifications: Alcaligenes denitrificans subsp. xylosoxydans MI-4
As to B1, in data set [1], the “activity to N-acetyl-L-tryptophan” value is “inactive”. Moreover, the yield entry in data set [2] (15% N-acetyl-DL-tryptophan, 30° C., 24 hours, culture medium solution) was “about 4%”; in data set [5], “about 15%”. In addition, in data set [2] (from 150 g/l N-acetyl-DL-tryptophan (75 g/l N-acetyl-D-tryptophan), FIG. 1), the D-tryptophan produced entry is “about 2.5 g/l”. Further, the “Activity of producing D-tryptophan” value in data set [3] amounted to 2.65. For the same molecule, the “activity to N-acetyl-D-tryptophan” value in data set [4] was at most 20 U/mg.
